Measurements reported in article PMC2572620, “The Mycoplasma pneumoniae MPN229 gene encodes a protein that selectively binds single-stranded DNA and stimulates Recombinase A-mediated DNA strand exchange” (BMC Microbiology, 2008).

Molecular target: the molecule itself
Experiment: SEC; Sephadex G-150 column; 500 ul of untagged Mpn SSB at 0.3 mg/ml in 50 mM Tris-HCl pH 7.5, 135 mM NaCl; calibrated with BSA, ovalbumin and cytochrome C; fractions analysed by SDS-PAGE

B1: Mpn single-stranded DNA-binding protein (Mpn SSB), natural non-tagged form (natural protein, Mycoplasma pneumoniae, UniProt P75542 1-166, looked up)
chain: MNRVFLFGKLSFDPNKLQTRTNNIGASFSLACIDSSGFNDSKSYIRITAWGKVASFVLTLKPGDSVFVEGRLSTYKMNNRSDDPNSKATYALQVIADKVYRPDEENSLEQPVDKATVIDSPFLAAKTNATENELAQAFPISLDDEDDDINPILNNDSQLEEESDDE
notes: 166 amino acids, 18.4 kDa; ORF amplified from genomic DNA of strain MAC (ATCC 15492) with primers from the initiation codon to the termination codon; expressed in its natural, non-tagged form; Cloned from strain MAC; the genome entry for MPN229 is of strain M129; also called MPN229 protein product; M. pneumoniae SSB; source: E. coli BL21(DE3), pET-11c-MpnSSB, purified (ammonium sulphate …)
For B1, the “stoichiometry N” value was 4.
